Measurements from publication doi:10.1101/605725.

Biological target: GST-Nxf2 first LRR region (1-285) (UniProt Q9VV73 1-285)
Assay: EMSA

GST-Nxf2 first LRR region (1-285), sequence (Q9VV73 1-285): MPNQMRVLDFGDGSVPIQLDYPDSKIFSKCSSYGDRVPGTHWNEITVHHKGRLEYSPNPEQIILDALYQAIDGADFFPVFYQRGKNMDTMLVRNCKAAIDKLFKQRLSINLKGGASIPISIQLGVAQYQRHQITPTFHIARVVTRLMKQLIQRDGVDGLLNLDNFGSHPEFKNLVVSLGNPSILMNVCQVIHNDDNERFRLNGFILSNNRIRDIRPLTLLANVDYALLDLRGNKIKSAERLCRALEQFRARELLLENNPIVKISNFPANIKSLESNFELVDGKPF

Binder: AGCACCGUAAAGACGC (ssRNA) [16-mer ssRNA]
- binding result: binds
